doi:10.1101/594168, “Pat1 activates late steps in mRNA decay by multiple mechanisms” (bioRxiv, 2019)

Target: T1, Lsm1-7 complex (S. pombe, UniProt P87173 1-140; O94408 1-96; Q9Y7M4 1-93; O14352 1-121; O42978 1-80; Q9UUI1 1-75; …)
T1 construct: Lsm1, S. pombe; Lsm2, S. pombe; Lsm3, S. pombe; Lsm4, S. pombe; Lsm5, S. pombe; Lsm6, S. pombe; Lsm7, S. pombe; Heteroheptameric ring formed beforehand; the His6-TEV tag stood on the N-terminus of Lsm1 and was cleaved with TEV protease; also called Lsm1-7 ring; source: E. coli BL21(DE3)*, co-expressed from a polycistronic gene, purified (Ni-NTA, heparin, SEC); not shown: His6, N-terminal, …
Experiment: pull-down; 10 µM MBP-tagged Pat1 construct and 10 µM Lsm1-7 mixed 15 min at room temperature, bound to amylose beads, washed four times, eluted with 10 mM maltose; SEC buffer (20 mM HEPES pH 7, 150 mM NaCl, 1 mM DTT); SDS-PAGE, Instant Blue stain
Conditions: both partners purified

binding result | Binder
binds | MBP-Pat1 296-431 (domain or fragment, S. pombe, UniProt O42958 296-431, looked up, also called construct containing most of the middle domain of Pat1; source: E. coli BL21(DE3)*, purified (Ni-NTA, SEC); not shown: His6, N-terminal, kept; MBP, N-terminal, kept) LDEKRQKLERDHMLMAQCAGLMTRSDKSFIARIQISQLMSEDPESDDFYYRVYSIIRGRKPSEEEASHFIQTYLGPSNNRRRGRRSENPMQKLQQQLQRLVSSAKERPKATQLSLEGALGKIAVNTVRTPRQLLNV
binds | MBP-Pat1 317-754 (domain or fragment, S. pombe, UniProt O42958 317-754, looked up, also called PatMC lacking the LAR; source: E. coli BL21(DE3)*, purified (Ni-NTA, SEC); not shown: His6, N-terminal, kept; MBP, N-terminal, kept) MTRSDKSFIARIQISQLMSEDPESDDFYYRVYSIIRGRKPSEEEASHFIQTYLGPSNNRRRGRRSENPMQKLQQQLQRLVSSAKERPKATQLSLEGALGKIAVNTVRTPRQLLNVKRPTEPASSNSSLNNFSGFSTKKDVLHAIEKVYDLLLDFEQALRKASTLETTDQEQIDTWKTTLSEKLESIWKALYINESLEASSKTRPPFISIISHPKGMRLLPRLFPHLSKEQQISILKVVVYNFDSLDIVLRGTFDVNGELPLDVVSEMSSFTQFIIPPLLTIVNELDLETINNLFSQLLNRTNAVYLIQTKIGLSFLTLFISRAEILKQSGTVNQNEKEEWENTFNVMFNRVKGHFSTVFPPPNARAYADESYPWEFLAACATAASSEQHFTLVSETRDRVLDNIITSKRAPSEIAVVRISNVNLFLNAMGLDARQLSA
binds | MBP-PatMC (Pat1 residues 296-754) (domain or fragment, S. pombe, UniProt O42958 296-754, looked up, The MBP tag was not removed from constructs that contain the middle domain; also called SpPatMC; H6MBP-PatMC; source: E. coli BL21(DE3)*, purified (Ni-NTA, SEC); not shown: His6, N-terminal, kept; MBP, N-terminal, kept) LDEKRQKLERDHMLMAQCAGLMTRSDKSFIARIQISQLMSEDPESDDFYYRVYSIIRGRKPSEEEASHFIQTYLGPSNNRRRGRRSENPMQKLQQQLQRLVSSAKERPKATQLSLEGALGKIAVNTVRTPRQLLNVKRPTEPASSNSSLNNFSGFSTKKDVLHAIEKVYDLLLDFEQALRKASTLETTDQEQIDTWKTTLSEKLESIWKALYINESLEASSKTRPPFISIISHPKGMRLLPRLFPHLSKEQQISILKVVVYNFDSLDIVLRGTFDVNGELPLDVVSEMSSFTQFIIPPLLTIVNELDLETINNLFSQLLNRTNAVYLIQTKIGLSFLTLFISRAEILKQSGTVNQNEKEEWENTFNVMFNRVKGHFSTVFPPPNARAYADESYPWEFLAACATAASSEQHFTLVSETRDRVLDNIITSKRAPSEIAVVRISNVNLFLNAMGLDARQLSA
binds | MBP-PatMC L457A/E461K (domain or fragment, S. pombe, UniProt O42958 296-754, looked up, also called SpPatMC L457A/E461K; Mut; source: E. coli BL21(DE3)*, purified (Ni-NTA, SEC); not shown: His6, N-terminal, kept; MBP, N-terminal, kept) LDEKRQKLERDHMLMAQCAGLMTRSDKSFIARIQISQLMSEDPESDDFYYRVYSIIRGRKPSEEEASHFIQTYLGPSNNRRRGRRSENPMQKLQQQLQRLVSSAKERPKATQLSLEGALGKIAVNTVRTPRQLLNVKRPTEPASSNSSLNNFSGFSTKKDVAHAIKKVYDLLLDFEQALRKASTLETTDQEQIDTWKTTLSEKLESIWKALYINESLEASSKTRPPFISIISHPKGMRLLPRLFPHLSKEQQISILKVVVYNFDSLDIVLRGTFDVNGELPLDVVSEMSSFTQFIIPPLLTIVNELDLETINNLFSQLLNRTNAVYLIQTKIGLSFLTLFISRAEILKQSGTVNQNEKEEWENTFNVMFNRVKGHFSTVFPPPNARAYADESYPWEFLAACATAASSEQHFTLVSETRDRVLDNIITSKRAPSEIAVVRISNVNLFLNAMGLDARQLSA
